{"source": "paper PMC6210652", "about": "“Virus Sensor RIG-I Represses RNA Interference by Interacting with TRBP through LGP2 in Mammalian Cells”", "assay_in_all_cases": "EMSA; 3 uM protein, 0.5 nM siRNA, 1.5 mM Mg2+; 20 mM Tris pH 8.0, 1.5 mM MgCl2, 50 mM NaCl, 1.5 mM DTT, 100 ng/uL sonicated salmon sperm DNA, 5% glycerol, 0.4 U/mL RNasin; 30 min on ice; 9% PAGE in 0.25x TBE", "details_in_all_cases": "protein: recombinant; label: 5'-32P on guide strand; siRNA duplex 21-nt strands, 19 bp, 3' overhangs 2 nt on both strands", "key": {"[1]": {"target": "T1, MDA5 (UniProt Q9BYX4 1-1025)", "T1 sequence": "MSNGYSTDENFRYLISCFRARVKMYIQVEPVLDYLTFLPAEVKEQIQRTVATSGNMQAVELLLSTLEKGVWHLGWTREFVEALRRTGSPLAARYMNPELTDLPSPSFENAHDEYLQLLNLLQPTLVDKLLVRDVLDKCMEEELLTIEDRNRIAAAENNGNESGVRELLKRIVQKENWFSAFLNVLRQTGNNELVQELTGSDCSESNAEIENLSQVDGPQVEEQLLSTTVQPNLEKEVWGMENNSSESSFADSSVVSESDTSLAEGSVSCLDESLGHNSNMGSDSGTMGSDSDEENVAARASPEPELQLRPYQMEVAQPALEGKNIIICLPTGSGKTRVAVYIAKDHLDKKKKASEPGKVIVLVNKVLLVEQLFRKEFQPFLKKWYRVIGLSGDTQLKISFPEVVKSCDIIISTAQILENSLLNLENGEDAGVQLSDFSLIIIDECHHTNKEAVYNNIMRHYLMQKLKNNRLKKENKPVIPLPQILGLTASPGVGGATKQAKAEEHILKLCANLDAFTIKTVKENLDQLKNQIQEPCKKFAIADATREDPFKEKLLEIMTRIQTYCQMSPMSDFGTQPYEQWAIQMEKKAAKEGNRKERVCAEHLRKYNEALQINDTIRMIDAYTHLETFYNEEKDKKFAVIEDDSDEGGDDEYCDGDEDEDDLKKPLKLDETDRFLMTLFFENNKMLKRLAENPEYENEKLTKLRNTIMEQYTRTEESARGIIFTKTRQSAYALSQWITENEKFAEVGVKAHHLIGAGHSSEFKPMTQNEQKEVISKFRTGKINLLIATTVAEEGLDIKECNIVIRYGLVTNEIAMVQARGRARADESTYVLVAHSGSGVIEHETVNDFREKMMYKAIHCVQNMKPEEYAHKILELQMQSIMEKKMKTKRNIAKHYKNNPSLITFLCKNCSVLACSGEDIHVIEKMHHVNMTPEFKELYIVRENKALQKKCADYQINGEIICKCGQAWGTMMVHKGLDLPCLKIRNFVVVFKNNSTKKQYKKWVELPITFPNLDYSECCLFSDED"}, "[2]": {"target": "T2, LGP2 (UniProt Q96C10 1-678)", "T2 sequence": "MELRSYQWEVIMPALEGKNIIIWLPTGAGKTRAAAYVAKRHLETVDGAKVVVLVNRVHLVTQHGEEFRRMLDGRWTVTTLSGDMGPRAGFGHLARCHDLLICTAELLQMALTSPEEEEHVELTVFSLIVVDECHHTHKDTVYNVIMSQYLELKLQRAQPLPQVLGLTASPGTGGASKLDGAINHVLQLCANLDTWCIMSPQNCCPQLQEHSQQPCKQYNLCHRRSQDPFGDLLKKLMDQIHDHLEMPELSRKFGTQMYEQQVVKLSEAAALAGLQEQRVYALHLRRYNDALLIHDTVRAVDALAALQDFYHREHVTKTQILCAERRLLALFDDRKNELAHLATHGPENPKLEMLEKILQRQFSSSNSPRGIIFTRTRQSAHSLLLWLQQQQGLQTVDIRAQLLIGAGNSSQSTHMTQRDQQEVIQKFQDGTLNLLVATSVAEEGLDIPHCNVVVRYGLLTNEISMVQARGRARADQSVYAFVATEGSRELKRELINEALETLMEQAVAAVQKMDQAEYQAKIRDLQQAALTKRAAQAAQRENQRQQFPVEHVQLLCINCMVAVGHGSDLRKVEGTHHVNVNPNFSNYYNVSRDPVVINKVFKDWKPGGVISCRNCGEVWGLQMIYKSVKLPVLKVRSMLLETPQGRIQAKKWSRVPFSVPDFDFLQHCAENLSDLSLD"}, "[3]": {"target": "T3, RIG-I (UniProt O95786 1-925)", "T3 sequence": "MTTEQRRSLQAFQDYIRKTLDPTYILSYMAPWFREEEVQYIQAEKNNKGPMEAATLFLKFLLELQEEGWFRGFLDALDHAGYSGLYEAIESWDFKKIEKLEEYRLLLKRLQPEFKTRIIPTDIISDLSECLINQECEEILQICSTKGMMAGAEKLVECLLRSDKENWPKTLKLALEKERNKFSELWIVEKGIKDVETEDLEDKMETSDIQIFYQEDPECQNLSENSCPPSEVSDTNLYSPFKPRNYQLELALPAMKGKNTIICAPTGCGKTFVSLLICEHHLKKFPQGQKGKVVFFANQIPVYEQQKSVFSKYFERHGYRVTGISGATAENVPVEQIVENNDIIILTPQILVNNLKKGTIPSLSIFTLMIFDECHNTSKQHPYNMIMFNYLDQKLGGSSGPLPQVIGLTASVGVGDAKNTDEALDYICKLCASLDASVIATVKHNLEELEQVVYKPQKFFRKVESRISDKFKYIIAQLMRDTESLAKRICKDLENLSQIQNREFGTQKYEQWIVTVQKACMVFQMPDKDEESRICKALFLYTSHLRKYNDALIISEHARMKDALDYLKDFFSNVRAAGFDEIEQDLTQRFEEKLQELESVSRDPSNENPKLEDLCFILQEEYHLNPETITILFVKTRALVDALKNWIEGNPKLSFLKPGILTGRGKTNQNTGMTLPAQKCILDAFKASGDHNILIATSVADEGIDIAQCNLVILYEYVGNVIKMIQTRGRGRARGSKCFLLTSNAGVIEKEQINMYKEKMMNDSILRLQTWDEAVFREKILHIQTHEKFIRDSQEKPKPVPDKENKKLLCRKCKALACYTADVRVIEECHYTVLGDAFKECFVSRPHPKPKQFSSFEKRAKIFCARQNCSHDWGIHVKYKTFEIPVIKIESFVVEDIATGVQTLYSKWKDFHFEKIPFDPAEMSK"}}, "data": [{"binder": "siLuc-36 (dsRNA) RNA 1: UCUUCCAGCGGAUAGAAUGGC RNA 2: CAUUCUAUCCGCUGGAAGAUG", "values": [{"measurement": "binding result", "setting": "[1]", "value": "no binding"}, {"measurement": "binding result", "setting": "[2]", "value": "binds"}, {"measurement": "binding result", "setting": "[3]", "value": "binds"}]}]}
